Test results published in a protein production outcome set (Wang et al. 2014).

Assay: label from the status in PepcDB records
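Note: failed if final PepcDB status was selected cloned or expressed and not failed if soluble or beyond.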

| Sequence | protein production |
| --- | --- |
| MDLAGQGQYGQVYLAVNRESGDLVAIKVLSERQLLTRGFLRELNFLLTLQHPHVVGCQAIDYIRVHHSPQVSRSLVMDYCAGGTLRSLLEQEQALPLTTALRLTLDILSALAYAHHRGILHCDLKPENILLEVTATGWQAKVSDFGVARLIEDVKGSGQTGSPAYMAPERFYGQTMPASDLYAVGILLYEMIVGDRPFHGTPAELMAAHLSRPYTLPEGLPFLVRSIIAKALDKLPQRRYKSAAEMTMAVQLALEVIEAEHHQQPLLFSRSPAAVWLGEPQGFALPRLPQQVASTATGFYGVVGDRLWAWQARETIPEATAQWPLPPLPIQLYGSEVSAWLRINALPPQLFCIHDQLIPLDGHLPSTLNPLTIDARGYWWAETQIDSAAAELQLHVQLINGQGRRTLRCQWHGRTFVDTLLLNRRYGAVISRSQDPETAHPITHFQLFDRRGHWRLYTPLPAHLTLLTPAHHQPWQVAAFEDHPQQPLLVLLHLRPWRIQRLGLRFRPQFLCATPWGYVVAGRHSLNLVTHSGEIVGTAESEQEIDGLGFTGDRHLWLIRRQGSGCVIQTWDITTWDIHLIL | failed |
| MNRNRLPALTPGLAWSRPMNGAVDHKGYEQPTYDLEFAETATEIRRYGPYLVAEVTMAGDRSTAITRGFRVLARYIFGGNAESRRIEMTVPVSQLPAGEDLWTVRFTMPAVRSASLLPAPKDSRIRFVTVPPSRQAVRRFSGWPTDHALRRQAEGLAHWIAERGLPKREGPYFYFYDSPMTLPWQRRNEVAFGLGEGLEHHHHHH | not failed |
| MLYTTFSAIIPSFLIILIGYTVGKIFSEETMGLASKVAIWVMVPTVTFTFINEYTPSFSTLGEFGLGVAIIFVIFYLYSRLFKEKKEVIHVTAVTANVGYLGYPILLSLWGEEALSLGVVYATLNIIMFSAVLPMFLGEKVNVKNLFKLPYVYALVAGFLTGKLGWSFRELPEWLVNAILMLKQSAIPYLLIYVGLSVSKLKLGRHLSKIGGIIVVNKLFLAPLIALVFALIYGLEGLTAKVFVLETAMPAAVNAVILTSALGGDSETVSYGVTLTTFFAIFTLPVWAVILESIFG | failed |
| MKNLLKRYVSIKNIIKVIELDFFANLKLRYYKLAMKLFKIEDEKFDEILLKAGMNAVSSTYLPVVFLTSIILGLIIFIIFLIVFNIFYAIFGLIGGIFIVILIGVLYPYVLAEEKAKSIDENLPYAFAFISALSSANIPVVEIFTSLSKEDIYGGMSKEAKEIVKDTKVFNYDIITTFLRRARITPSKKLSSVYYNIVASLIVGAEMKNIFHEIYERLMEDRKLELFEAIEKVEILSEFYVIACGMIPLFVVMTVPVASSISAILQTASLFGDPKLLPLTFYLWVPIASIIFMGLVYGILPKDFKLNVSLLDVLKEFDEPEIEGIKMKFKWKPVHFITLFFWMLSIISFMLFFIRKSIFKFHGTDFLMFGILFLILPFILTSYWHFIIENQKERYYPIFLNDLTMAVRSGMDIIRAMQVCARTNYGPLTKIVKKMAIQMSWGRPVNEVFADLERTEKSLIAKRIASILKECAVSGGDVKDILTSVTVHAYKLSEMKREISARQFIYVVVIYLSFFLYIGTSYIMVHSLLPTLLKNIHGLSVEFYKNYLFQGILIYSIFSGASLGILTERSIIAGIKHILLMLIVGYMLFKFYIGG | failed |
| MDHQLQQLLDLGLEAKCLLVGINGHWGRAPWWSRPQRGRWPGGCGHLPIFQGGPERICRVLLSARGRAAAAMAAVSWPAIRLALSHVANCATAVLPPLAIDRCQAMSRPQRPARRGAEGQVRIVGGRWRNTRLAVPSLTGLRPSSDRVRETLFNWLMPRLPGARVLDLFAGSGALGLEAVSRGAGHATLIERDSSLVQRLRAHVTRLDAATQVQVLQEDAVRWLERAPAALADIVFVDPPFAACLWPAVLERLPAHVAADAWLYLEAPADAPLLPAGWHLHREGATREVRYALYRRAAATLASDPTPVVSV | failed |
| MTKKQKEILFCDYFEEWVEVYKVGAIAKITLAKYYNAAKQLRDLCPKLFISDFDRREYQRIINVYAETHEKQTVKDFHHHVKACIKDLFHDGLIDKDPTYRVVIKGAEPTRAKLEHHHHHH | failed |
| MECDRNVEKMSQVILLFFIYSFIGWLWETVYCSLKAKKFVYRGFLVGPYCPIYGFGVLSVLYFVEPFENNLLVLYVGSAVLVTILEYVTSYGLEKLFHASWWDYHDVPFNLNGRVALPVSLFWGLGCVLIVKVIQPEIAKVVSFLQATFGNYLALCIVIVMGLDLIYTLLNMQGFKKLITEMGQTLETNQQEFKQRLNTKMEIATADWQKLKERTKKEHFQNRLNFQQRRFINNYPKLTLKNIKNSKEVRHLLEDLKKKGQ | failed |
| MRIFGKARHRPSASWRQATDRAFTLIGDGRYEDAGALLTRAADLEPWLSESWFNLALLHKFRHDWEQARAAGLRAVALLDRDIGAPDWWNVGIAATALQDWPLARRAWQAYGLRTPGGATDAGEPLGMDLGSAAVRLSPEGEAEVVWGRRLDPARVEVLSIPLPSSGRRWGEVVLHDGVPHGERTTSAGHSYPVFDEIELWAPSPVPTWVVLLEAATESDRDALEQLAADAGFAAEDWSSSVRLLCRMCSESRMPSDEGDGEHLDPHDHSEPGHPGPLGHRTDGQLWVPERECGVAAPAGLVKGLLDGWVADSPDSRDWRDLEEVC | failed |
| MGKRSSNDLPPVEASMARHIIHFTGPINSSTCGNLITTCSRALQQGAELLQLNIATMGGECSYGFTLYNFLRALPVEVHTHNLGTVESMGNILFLAGERRTACSFSKFLFHPFHWTLHGSVDHSRMSEYAMSLDYDLRLYAQIVAERTKGAAEVLDVPRYLMAYPRILAPREALENGMIHEIDEMPIASDATQWSVHA | failed |
| MELKNVKDAFDRVTKKQKLCYSKTHEVVDKMSQEIDKALKTIQEDNHESVVADLKKTFEEIAPINLLEASQKEINGVLTKYPKALDKTLNPDISTAYRNVKFDTHTVHQILAQFFYRQGMYDVGDCFISETGEVKPESSVTKAFMEMNMILEAMKERDLGPALKWVASNSDKLKEAKSDLELKLHSLHFLEIAKDKTSEEAINYARKHFATYSADSCCFPEIQKLMCSLLWIRNLNKSPYSEFLSPVLWTNAAKELTRQYCILLGESPESPLSVTVAAGSQVLPTFLKYLNVLPEKRKEWQTMEQLLVPVELSEEYRFYSVFVCPVSKEHSSEDNPPMRLACGHVLCKQSINRMSRNGSRSFKCPYCPTDIDASQCKQLYF | failed |
| MNFLSIFVLIPLLMLAGLWAARGIKAIRGVMVTGASALLIASVVLTFMYLGERSAGNTAEMLFRADTLWYAPLHISYSVGVDGISVAMLLLSAVIVFTGTFASWRLQPLTKEYFLWFTLLSMGVFGFFISIDLFTMFMFYEIALIPMYLLIGVWGSGRKEYAAMKLTLMLMGGSAFLLIGILGIYFGSGATTMNLLEIAQLHNIPFAQQCIWFPLTFLGFGVLGALFPFHTWSPDGHASAPTAVSMLHAGVLMKLGGYGCFRIAMYLMPEAANELSWIFLILTGISVVYGAFSACVQTDLKYINAYSSVSHCGLVLFAILMLNQTAATGAILQMLSHGLMTALFFALIGMIYGRTHTRDVRELTGLMKVMPFLSVCYVIAGLANLGLPGLSGFIAEMTIFVGSFQNNDVFHRTLTIIACSSIVITAVYILRLVGKILYGTCTNKHHLALTDATWDERVAVICLIVCVAGLGMAPFWVSHMIGESVLPVVSQLIP | failed |
| TVNVTTKKTPPSQPPGNVVWNATDTKVLLNWEQVKAMENESEVTGYKVFYRTSSQNNVQVLNTNKTSAELVLPIKEDYIIEVKATTDGGDGTSSEQIRIPRITS | not failed |
| MPGIDKLPIEETLEDSPQTRSLLGVFEEDATAISNYMNQLYQAMHRIYDAQNELSAATHLTSKLLKEYEKQRFPLGGDDEVMSSTLQQFSKVIDELSSCHAVLSTQLADAMMFPITQFKERDLKEILTLKEVFQIASNDHDAAINRYSRLSKKRENDKVKYEVTEDVYTSRKKQHQTMMHYFCALNTLQYKKKIALLEPLLGYMQAQISFFKMGSENLNEQLEEFLANIGTSVQNV | failed |
| MDPERDALRIALYYALFSILWILSSDYLVALMFQPHVMVRLSVLKGSLFIILTSLLLYFLLKLYLRSLTDKERALRISEHKFRSLFMELPLGVVLMDTYGRILESNPAMGRFHGDSLDGMLIGEIHPDLEPGPDREFMVRMDGRWLRVVITRIEGGFLGIFEDLTDIKNSEEAARRSLEANRTLLAELHHRVKNNLQIISSLISIQSSKMPREHAEIMRSLQLRIKSIAVIHEMLLSSPESSSISFASYVSGLTGYLRDMYQSAAEFELDVPDVEFNIETAVPLGLIVGELVSNSLRHAFTDGGTIRISLEARDDGFILVVADNGGAFPITSAFRNQPASAWSLLRIW | failed |
| MAVPPVEMYSGSFWNRMRKPLPLRTQVIRFTVVFVIVSFILAVALQITHERMPDPKVTKPLPDLGFELLTKISFLSVVTDVLIAFLSLLSFFTLWKLYLLHRHCVGSGEPELPCNIPGVSRFFLSVWLCKENCRIELRNIHTIAWIRFITSYALLLLFRSLVIVMTSMPTPVDKCQDPPKIENPVKNVILTVLTAGGGSIHCGDLMYSGHTVILTLHLMFHWIYGAMVHWSFRPVVTVVAIFSYYCIVASRSHYTDDVLVAIYLTIATFIAVGHNADGAPWQLQLFIRWLPCCGANSREVTEDSQPVMVAFKSEAVDELRERDDSAGLSGEVSTNEVVSHHHHHH | failed |
| MNRTARRDGTPEKPRRGSQGGSRGDYGKPKRSHAKPQSANSGRPIKQRKQRDSEMLISNARPARHQHVGRREAGDGSTEG | failed |
| MKLLLTRPEGKNAAMASALDALAIPYLVEPLLSVEAAAVTQAQLDELSRADILIFISTSAVSFATPWLKDQWPKATYYAVGDATADALALQGITAERSPADSQATEGLLTLPSLEQVSGKQIVIVRGKGGREAMADGLRLRGANVSYLEVYQRACPPLDAPASVSRWQSFGIDTIVVTSGEVLENLINLVPKDSFAWLRDCHIIVPSARVETQARKKGLRRVTNAGAANQAAVLDALGM | not failed |
| MGSRLAESSTPMKACEEVGRPSFTSEQTASSCVIDVRDNARISSASSDGTEVESVGTAIKGELDRTARPTFTAGKNKSVRFECDLDQSNSSNSSENGSSRKPEMGGKICFTVSSPNPTPLKLSDEMQTPGTIYPANMESGGRGRPRIRSQFVHSVSNIMENASLYKVYKDSHEGLDYEEQIEAETPSSETYGEKVEESSDEKLSKFEASFSPWLNQINENIAALNERTPGVGVITPGDRPIIGLVAAQWIENEQTEISPKMWDGNGIPNSTTKYKEDQKVSWHATPFEVRLEKALSEEGGQSLFPQRKLEVMMEEVEGDTDISQLHHSVQPNSVVSF | failed |
| MLEEVERWLDARSWPAADRPVQHLLSAKHATGQSVSVVLPALDEEATVGDIVSVIRRELVLGVPLVDEIVVVDSGSSDRTSEVAAAAGARVVHRDAILPRIPAVPGKGEVLWRSLLVTGGDIVCFVDADLREFSADFVSGIVGPLLTDPDVHLVKAMYDRPLAGAAGQGGRVTELMARPLLNMHWPQLAGFVQPLGGEYAARRSLLERLPFPVGYGVELGMLVDALHLVGLDALAQVDVGVRVHRHQDGRALGRMAAAIYRTAQLRLARGHLVRPALTQFERGVDGFEPRTYAVDTEERPPMTEIAEYAARKVALEHHHHHH | not failed |
| MKSPFYRCQNTTSVEKGNSAVMGGVLFSTGLLGNLLALGLLARSGLGWCSRRPLRPLPSVFYMLVCGLTVTDLLGKCLLSPVVLAAYAQNRSLRVLAPALDNSLCQAFAFFMSFFGLSSTLQLLAMALECWLSLGHPFFYRRHITLRLGALVAPVVSAFSLAFCALPFMGFGKFVQYCPGTWCFIQMVHEEGSLSVLGYSVLYSSLMALLVLATVLCNLGAMRNLYAMHRRLQRHPRSCTRDCAEPRADGREASPQPLEELDHLLLLALMTVLFTMCSLPVIYRAYYGAFKDVKEKNRTSEEAEDLRALRFLSVISIVDPWIFIIFRSPVFRIFFHKIFIRPLRYRSRCSNSTNMESSL | failed |
| KIRSYTSIWSVEKVLYSINDFRLPFPITFTQMTWFVVSLFAVMILGNVPPLSMIEGAFLKYFGIPVAFTWFMSTKTFDGKKPYGFLKSVIAYALRPKLTYAGKKVTLGRNQPQEAITAVRSEFY | failed |
